Assay results published in US20200040048A1 (published 2020).
Each block holds one binder with its values, some of them ahead of it. Bridge positions count the residues as written; N and C are the ends. Square brackets hold non-standard residues; d marks the D form. dPhe(4-CF3) = N[C@H](Cc1ccc(C(F)(F)F)cc1)C(=O)O; R8 = C=CCCCCCC[C@@](C)(N)C(=O)O; R5 = C=CCCC[C@@](C)(N)C(=O)O; hLeu = CC(C)CC[C@H](N)C(=O)O; S5 = C=CCCC[C@](C)(N)C(=O)O; Cou6 = not defined here; Cou8 = not defined here; βAla = NCCC(=O)O

What was measured:
[1] = biological target: T1, zebrafish MDMX protein (residues 15-129, L46V/V95L) (zebrafish, UniProt Q7ZUW7 15-129); assay: X-ray co-crystallography, complex refined to 2.3 Å
T1 construct: Purified on Ni-NT agarose, so it probably carries a His tag from pET15b
T1 sequence (looked up): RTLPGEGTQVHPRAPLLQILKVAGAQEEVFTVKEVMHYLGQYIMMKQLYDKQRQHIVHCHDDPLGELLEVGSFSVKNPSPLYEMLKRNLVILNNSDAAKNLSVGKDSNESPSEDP

MDMX (40 kD), O15151 = biological target: T2, MDMX (40 kD), O15151; assay: competitive FP on MDMX, FAM-labeled linear peptide displaced; Ki grade, + = >1000 nM; conditions: remark: other sources report otherwise
T2 chain: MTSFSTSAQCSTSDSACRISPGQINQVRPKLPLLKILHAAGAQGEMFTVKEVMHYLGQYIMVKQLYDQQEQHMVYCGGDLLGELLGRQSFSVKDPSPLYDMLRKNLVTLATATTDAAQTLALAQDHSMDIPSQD

MDM2 = biological target: T3, MDM2 (UniProt Q00987 1-138, limits assumed); assay: competitive FP vs FAM-labeled linear peptide, MDM2 41 kD; grade, scale in paragraph 603
T3 construct: also called MDM2 (41 kD); HDM2
T3 sequence (Q00987 1-138 limits assumed): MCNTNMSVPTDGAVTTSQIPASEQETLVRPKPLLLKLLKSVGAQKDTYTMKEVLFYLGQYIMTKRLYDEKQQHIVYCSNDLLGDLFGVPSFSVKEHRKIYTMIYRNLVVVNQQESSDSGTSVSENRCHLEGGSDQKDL

binding result [1]: binds
B1: Ac-QSQQTF%r8NLWRLL%QN-NH2 (peptide)
peptide: QSQQTFANLWRLLAQN
modifications: not fully specified; N-terminal acetyl; C-terminal amide; %r8 at position 7 and % at position 14 are crosslinked alpha-methyl non-natural amino acids forming the i, i+7 aliphatic staple (the token '%' alone is not defined in the filing)

Ki (MDMX (40 kD), O15151): > 1 µM
Binder: Cou6-[βAla]LTF[R8]EYWAQ[hLeu][S5]SAA-NH2 (staple 5-12; reading uncertain) [SP446 Cou6BaLTF$r8EYWAQhL$SAA-NH2]

IC50 (MDM2): ≤ 0.01 µM
B2: peptidomimetic macrocycle SP 755 (peptide)
peptide: Ac-[dT][dA][dW][dY][dA][dN][dPhe(4-CF3)][dE][R5][dL][dL][dR][R5][dA]-NH2
modifications: staple 9-13
notes: also called Ac-tawyanf4CF3e$r5llr$r5a-NH2

Ki (MDMX (40 kD), O15151): > 1 µM
Binder: Cou8-[βAla]LTF[R8]EYWAQ[hLeu][S5]SAA-NH2 (staple 5-12; reading uncertain) [SP447 Cou8BaLTF$r8EYWAQhL$SAA-NH2]
